Biological target: OC183B2 (antigens associated with ovarian carcinoma) (human)
Assay: indirect ELISA of phage-displayed scFv

B1: anti-ovarian carcinoma scFv antibody (scFv)
scFv: EVQLQESGPEVKKPGETVRISCKASGYTFTTAGMQWVQKMPGKGLKWLGWINTNSEVPKYAEDFRGRFAFSLETSASTAYLQISNLKNEDTATFFCARSFTWGTMDYWGQGTTVTVSSGGGGSGGGGSGGGGSDVVMTQTPLSLPVSLGDQASISCRSSQTLVHSIGNTYLHWYLQKPGQSPKLLIYKVSNRFSGVPDRFSGSGSGTDFTLKISRVEAEDLGVYFCSQSTHVPYTFGGGTKLELK
binding activity relative to negative control: 2.5 times

From patent US20080138339A1
